Laboratory results reported in the Human Domainome abundance scans (Beltran et al. 2025).
± gives the uncertainty stated by the source.

B1: Homeobox protein SIX3, residues 212 to 262; numbered along this chain, O95343 (parent)
chain: CFKERTRSLLREWYLQDPYPNPSKKRELAQATGLTPTQVGNWFKNRRQRDR

Variants of: B1
Test: abundance fitness (aPCA) (normalised: wild type 0, dead -1); higher = more abundant; growth selection in yeast, the domain comes from the species named
Details: Homo sapiens

Row | Variant | abundance fitness
1 | CFKERTRSLLREWYLQDPYPNPSKKRERAQATGLTPTQVGNWFKNRRQRDR [L28R] | -0.895 ± 0.091
2 | CFKERTRSLLREWYLQDPYPNPSKKRENAQATGLTPTQVGNWFKNRRQRDR [L28N] | -0.99 ± 0.16
3 | CFKERTRSLLREWYLQDPYPNPSKKREHAQATGLTPTQVGNWFKNRRQRDR [L28H] | -0.778 ± 0.26
4 | CFKERTRSLLREWYLQDPYPNPSKKREEAQATGLTPTQVGNWFKNRRQRDR [L28E] | -1.04 ± 0.28
5 | CFKERTRSLLREWYLQDPYPNPSKKREYAQATGLTPTQVGNWFKNRRQRDR [L28Y] | 0.069 ± 0.095
6 | CFKERTRSLLREWYLQDPYPNPSKKRESAQATGLTPTQVGNWFKNRRQRDR [L28S] | -0.833 ± 0.11
7 | CFKERTRSLLREWYLQDPYPNPSKKREFAQATGLTPTQVGNWFKNRRQRDR [L28F] | -0.07 ± 0.067
8 | CFKERTRSLLREWYLQDPYPNPSKKRILAQATGLTPTQVGNWFKNRRQRDR [E27I] | -0.486 ± 0.22
9 | CFKERTRSLLREWYLQDPYPNPSKKRMLAQATGLTPTQVGNWFKNRRQRDR [E27M] | -0.373 ± 0.07
10 | CFKERTRSLLREWYLQDPYPNPSKKRHLAQATGLTPTQVGNWFKNRRQRDR [E27H] | -0.446 ± 0.3
11 | CFKERTRSLLREWYLQDPYPNPSKKRKLAQATGLTPTQVGNWFKNRRQRDR [E27K] | 0.121 ± 0.1
12 | CFKERTRSLLREWYLQDPYPNPSKKRPLAQATGLTPTQVGNWFKNRRQRDR [E27P] | -0.785 ± 0.18
13 | CFKERTRSLLREWYLQDPYPNPSKKRRLAQATGLTPTQVGNWFKNRRQRDR [E27R] | -0.573 ± 0.078
14 | CFKERTRSLLREWYLQDPYPNPSKKRFLAQATGLTPTQVGNWFKNRRQRDR [E27F] | -0.276 ± 0.049
15 | CFKERTRSLLREWYLQDPYPNPSKKRVLAQATGLTPTQVGNWFKNRRQRDR [E27V] | -0.593 ± 0.095
16 | CFKERTRSLLREWYLQDPYPNPSKKRDLAQATGLTPTQVGNWFKNRRQRDR [E27D] | -0.253 ± 0.16
17 | CFKERTRSLLREWYLQDPYPNPSKKRQLAQATGLTPTQVGNWFKNRRQRDR [E27Q] | -0.357 ± 0.16
18 | CFKERTRSLLREWYLQDPYPNPSKKRCLAQATGLTPTQVGNWFKNRRQRDR [E27C] | -0.819 ± 0.2
19 | CFKERTRSLLREWYLQDPYPNPSKKRALAQATGLTPTQVGNWFKNRRQRDR [E27A] | -0.55 ± 0.09
20 | CFKERTRSLLREWYLQDPYPNPSKKRTLAQATGLTPTQVGNWFKNRRQRDR [E27T] | -0.668 ± 0.2
21 | CFKERTRSLLREWYLQDPYPNPSKKRWLAQATGLTPTQVGNWFKNRRQRDR [E27W] | -0.678 ± 0.083
22 | CFKERTRSLLREWYLQDPYPNPSKKRSLAQATGLTPTQVGNWFKNRRQRDR [E27S] | -0.322 ± 0.079
23 | CFKERTRSLLREWYLQDPYPNPSKKRLLAQATGLTPTQVGNWFKNRRQRDR [E27L] | -0.515 ± 0.079
24 | CFKERTRSLLREWYLQDPYPNPSKKRNLAQATGLTPTQVGNWFKNRRQRDR [E27N] | -0.947 ± 0.39
25 | CFKERTRSLLREWYLQDPYPNPSKKCELAQATGLTPTQVGNWFKNRRQRDR [R26C] | -0.044 ± 0.052
26 | CFKERTRSLLREWYLQDPYPNPSKKVELAQATGLTPTQVGNWFKNRRQRDR [R26V] | 0.047 ± 0.049

Row | Variant | abundance fitness
27 | CFKERTRSLLREWYLQDPYPNPSKKPELAQATGLTPTQVGNWFKNRRQRDR [R26P] | -0.889 ± 0.1
28 | CFKERTRSLLREWYLQDPYPNPSKKWELAQATGLTPTQVGNWFKNRRQRDR [R26W] | -0.266 ± 0.066
29 | CFKERTRSLLREWYLQDPYPNPSKKKELAQATGLTPTQVGNWFKNRRQRDR [R26K] | -0.01 ± 0.085
30 | CFKERTRSLLREWYLQDPYPNPSKKQELAQATGLTPTQVGNWFKNRRQRDR [R26Q] | 0.091 ± 0.09
31 | CFKERTRSLLREWYLQDPYPNPSKKYELAQATGLTPTQVGNWFKNRRQRDR [R26Y] | -0.286 ± 0.13
32 | CFKERTRSLLREWYLQDPYPNPSKKLELAQATGLTPTQVGNWFKNRRQRDR [R26L] | 0.158 ± 0.064
33 | CFKERTRSLLREWYLQDPYPNPSKKGELAQATGLTPTQVGNWFKNRRQRDR [R26G] | -0.209 ± 0.067
34 | CFKERTRSLLREWYLQDPYPNPSKKMELAQATGLTPTQVGNWFKNRRQRDR [R26M] | -0.14 ± 0.11
35 | CFKERTRSLLREWYLQDPYPNPSKKHELAQATGLTPTQVGNWFKNRRQRDR [R26H] | 0.047 ± 0.084
36 | CFKERTRSLLREWYLQDPYPNPSKKFELAQATGLTPTQVGNWFKNRRQRDR [R26F] | -0.228 ± 0.065
37 | CFKERTRSLLREWYLQDPYPNPSKKTELAQATGLTPTQVGNWFKNRRQRDR [R26T] | -0.091 ± 0.092
38 | CFKERTRSLLREWYLQDPYPNPSKKEELAQATGLTPTQVGNWFKNRRQRDR [R26E] | -0.002 ± 0.058
39 | CFKERTRSLLREWYLQDPYPNPSKKAELAQATGLTPTQVGNWFKNRRQRDR [R26A] | 0.181 ± 0.056
40 | CFKERTRSLLREWYLQDPYPNPSKKDELAQATGLTPTQVGNWFKNRRQRDR [R26D] | -0.667 ± 0.32
41 | CFKERTRSLLREWYLQDPYPNPSKKSELAQATGLTPTQVGNWFKNRRQRDR [R26S] | -0.045 ± 0.042
42 | CFKERTRSLLREWYLQDPYPNPSKKNELAQATGLTPTQVGNWFKNRRQRDR [R26N] | 0.385 ± 0.1
43 | CFKERTRSLLREWYLQDPYPNPQKKRELAQATGLTPTQVGNWFKNRRQRDR [S23Q] | -0.022 ± 0.11
44 | CFKERTRSLLREWYLQDPYPNPPKKRELAQATGLTPTQVGNWFKNRRQRDR [S23P] | -0.341 ± 0.12
45 | CFKERTRSLLREWYLQDPYPNPNKKRELAQATGLTPTQVGNWFKNRRQRDR [S23N] | -0.249 ± 0.08
46 | CFKERTRSLLREWYLQDPYPNPMKKRELAQATGLTPTQVGNWFKNRRQRDR [S23M] | -0.277 ± 0.14
47 | CFKERTRSLLREWYLQDPYPNPWKKRELAQATGLTPTQVGNWFKNRRQRDR [S23W] | -0.729 ± 0.15
48 | CFKERTRSLLREWYLQDPYPNPVKKRELAQATGLTPTQVGNWFKNRRQRDR [S23V] | -0.094 ± 0.064
49 | CFKERTRSLLREWYLQDPYPNPTKKRELAQATGLTPTQVGNWFKNRRQRDR [S23T] | -0.005 ± 0.075
50 | CFKERTRSLLREWYLQDPYPNPRKKRELAQATGLTPTQVGNWFKNRRQRDR [S23R] | -0.551 ± 0.074
51 | CFKERTRSLLREWYLQDPYPNPYKKRELAQATGLTPTQVGNWFKNRRQRDR [S23Y] | -0.761 ± 0.23
